The source of these data is patent US20220380457A1.

The target in the test is FcγRIIIA (CD16α) on human NK cells in whole blood (human) (UniProt P08637). Description: cell-based or functional assay.
Sequence of UniProt P08637 (P08637 17-254): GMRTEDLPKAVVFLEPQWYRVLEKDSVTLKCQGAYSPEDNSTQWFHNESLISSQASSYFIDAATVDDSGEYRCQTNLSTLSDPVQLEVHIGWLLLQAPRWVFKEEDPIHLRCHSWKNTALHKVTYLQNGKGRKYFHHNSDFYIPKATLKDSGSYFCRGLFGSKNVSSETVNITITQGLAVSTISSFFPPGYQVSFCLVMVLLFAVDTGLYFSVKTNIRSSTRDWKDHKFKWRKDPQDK

“WT rituximab (soluble antibody, wild type hinge)” registered an NK cell activation in whole human blood, CD16/CD62L staining, FIG. 11A control row, left lower quadrant (downregulation of CD16α) of 45.2; an NK cell activation in whole human blood, CD107α/CD69 staining, FIG. 11B control row, right upper quadrant (upregulation of CD107α) of 35.3; an NK cell activation with IdeZ, FIG. 11A IdeZ row, left lower quadrant of 8.8; an NK cell activation with IdeZ, FIG. 11B IdeZ row, right upper quadrant of 1.9. This substance displayed a depletion of CD19(+) B cells with IdeZ against WT rituximab in control blood of 63% and a residual CD19(+) B cells in blood with IdeZ, FIG. 11C IdeZ row, right lower quadrant of 9.8.
